Test results from the Immune Epitope Database (IEDB).

What was measured:
HLA-B*07:02 = assay: IEDB peptide-MHC binding, purified MHC/competitive/fluorescence; filed as Kd, often an IC50 or EC50 that approximates it; ≥ and ≤ were set here for values at or beyond the usual limits of such assays
HLA-A*03:01 [1] = assay: IEDB peptide-MHC binding, purified MHC/competitive/fluorescence; ≥ and ≤ were set here for values at or beyond the usual limits of such assays
HLA-A*11:01 = assay: as above; conditions: source organism: Variola virus
HLA-B*08:01 [2] = assay: as above
HLA-B*40:01 = assay: IEDB peptide-MHC binding, purified MHC/competitive/fluorescence; filed as Kd, often an IC50 or EC50 that approximates it; ≥ and ≤ were set here for values at or beyond the usual limits of such assays
HLA-A*24:02 = assay: IEDB peptide-MHC binding, purified MHC/competitive/fluorescence; ≥ and ≤ were set here for values at or beyond the usual limits of such assays; conditions: source organism: Zaire ebolavirus
HLA-A*02:01 [3] = assay: IEDB peptide-MHC binding, purified MHC/direct/fluorescence; filed as Kd, often an IC50 or EC50 that approximates it; ≥ and ≤ were set here for values at or beyond the usual limits of such assays; conditions: source organism: Orthohantavirus hantanense
HLA-A*02:11 = assay: as above; conditions: source organism: Orthohantavirus sangassouense
HLA-A*02:12 = assay: as above; conditions: source organism: Orthohantavirus sangassouense
HLA-A*02:19 = assay: as above; conditions: source organism: Orthohantavirus sangassouense
HLA-A*69:01 = assay: as above; conditions: source organism: Orthohantavirus hantanense
HLA-C*12:03 = assay: as above
HLA-A*02:01 [4] = assay: IEDB peptide-MHC binding, purified MHC/competitive/fluorescence; ≥ and ≤ were set here for values at or beyond the usual limits of such assays
HLA-B*15:01 [5] = assay: as above; conditions: source organism: Vaccinia virus WR
HLA-B*08:01 [6] = assay: IEDB peptide-MHC binding, purified MHC/competitive/fluorescence; filed as Kd, often an IC50 or EC50 that approximates it; ≥ and ≤ were set here for values at or beyond the usual limits of such assays; conditions: source organism: Escherichia coli
HLA-B*39:01 = assay: as above; conditions: source organism: Escherichia coli
HLA-C*15:02 = assay: IEDB peptide-MHC binding, purified MHC/direct/fluorescence; filed as Kd, often an IC50 or EC50 that approximates it; ≥ and ≤ were set here for values at or beyond the usual limits of such assays
HLA-A*01:01 [7] = assay: IEDB peptide-MHC binding, purified MHC/competitive/radioactivity; filed as Kd, often an IC50 or EC50 that approximates it; ≥ and ≤ were set here for values at or beyond the usual limits of such assays; conditions: source organism: Dengue virus 4 Philippines/H241/1956
HLA-A*01:01 [8] = assay: IEDB peptide-MHC binding, purified MHC/competitive/fluorescence; filed as Kd, often an IC50 or EC50 that approximates it; ≥ and ≤ were set here for values at or beyond the usual limits of such assays
HLA-B*57:01 [9] = assay: IEDB peptide-MHC binding, purified MHC/direct/fluorescence; filed as Kd, often an IC50 or EC50 that approximates it; ≥ and ≤ were set here for values at or beyond the usual limits of such assays; conditions: source organism: Giardia lamblia ATCC 50803
HLA-B*58:01 = assay: as above; conditions: source organism: Giardia lamblia ATCC 50803
HLA-A*29:02 = assay: IEDB peptide-MHC binding, purified MHC/competitive/fluorescence; filed as Kd, often an IC50 or EC50 that approximates it; ≥ and ≤ were set here for values at or beyond the usual limits of such assays; conditions: source organism: Homo sapiens
HLA-B*15:42 = assay: as above; conditions: source organism: Homo sapiens
HLA-B*45:06 = assay: as above; conditions: source organism: Homo sapiens
HLA-B*83:01 = assay: as above; conditions: source organism: Homo sapiens
HLA-A*03:01 [10] = assay: as above; conditions: source organism: Giardia lamblia ATCC 50803
HLA-A*26:01 = assay: as above; conditions: source organism: Giardia lamblia ATCC 50803
HLA-A*31:01 = assay: as above; conditions: source organism: Giardia lamblia ATCC 50803
HLA-B*15:01 [11] = assay: as above
HLA-B*15:17 = assay: as above; conditions: source organism: Giardia lamblia ATCC 50803
HLA-B*18:01 = assay: as above; conditions: source organism: Giardia lamblia ATCC 50803
HLA-B*27:03 = assay: as above; conditions: source organism: Giardia lamblia ATCC 50803
HLA-B*46:01 = assay: as above; conditions: source organism: Giardia lamblia ATCC 50803
HLA-B*51:01 = assay: as above
HLA-B*57:01 [12] = assay: as above; conditions: source organism: Giardia lamblia ATCC 50803
HLA-C*06:02 = assay: IEDB peptide-MHC binding, purified MHC/direct/fluorescence; filed as Kd, often an IC50 or EC50 that approximates it; ≥ and ≤ were set here for values at or beyond the usual limits of such assays
HLA-A*02:01 [13] = assay: IEDB peptide-MHC binding, purified MHC/competitive/radioactivity; filed as Kd, often an IC50 or EC50 that approximates it; ≥ and ≤ were set here for values at or beyond the usual limits of such assays; conditions: source organism: Vaccinia virus WR
HLA-A*02:02 = assay: as above; conditions: source organism: Vaccinia virus WR
HLA-A*02:03 = assay: as above; conditions: source organism: Vaccinia virus WR
HLA-A*02:06 = assay: as above; conditions: source organism: Vaccinia virus WR
HLA-C*05:01 = assay: IEDB peptide-MHC binding, purified MHC/direct/fluorescence; filed as Kd, often an IC50 or EC50 that approximates it; ≥ and ≤ were set here for values at or beyond the usual limits of such assays; conditions: source organism: human gammaherpesvirus 4
[14] = source organism: Zaire ebolavirus
[15] = source organism: Sudan ebolavirus
[16] = source organism: Vaccinia virus WR
[17] = source organism: Giardia lamblia ATCC 50803
[18] = source organism: Shigella boydii CDC 3083-94
[19] = source organism: human gammaherpesvirus 4

APSPYNSRF
Kd (HLA-B*07:02; source organism: Influenza A virus): 7.1 nM

AVARKHHTK
IC50 (HLA-A*03:01 [1]; source organism: Variola virus): 1460 nM
IC50 (HLA-A*11:01): 471 nM
IC50 (HLA-B*08:01 [2]; source organism: Variola virus): ≥ 436000 nM

EEAKLFFQV
Kd (HLA-B*40:01; source organism: Yersinia pestis Antiqua): 6.4 nM

ELRTFSILN
IC50 (HLA-A*24:02): 30100 nM
IC50 (HLA-B*08:01 [2]; [14]): ≥ 302000 nM

ERQLAKAII
IC50 (HLA-B*08:01 [2]; source organism: Vaccinia virus Copenhagen): ≥ 111000 nM

FIYGYLEPV
Kd (HLA-A*02:01 [3]): ≤ 1 nM
Kd (HLA-A*02:11): ≤ 1 nM
Kd (HLA-A*02:12): ≤ 1 nM
Kd (HLA-A*02:19): 2 nM
Kd (HLA-A*69:01): ≤ 1 nM
Kd (HLA-C*12:03; source organism: Orthohantavirus): 12 nM

FLRATTELR
IC50 (HLA-A*02:01 [4]; [15]): 56200 nM
IC50 (HLA-A*03:01 [1]; [15]): 26100 nM
IC50 (HLA-B*08:01 [2]; [14]): ≥ 87800 nM

FMHEQGYSH
IC50 (HLA-A*02:01 [4]; [16]): 9720 nM
IC50 (HLA-B*08:01 [2]; [16]): ≥ 301000 nM
IC50 (HLA-B*15:01 [5]): 14800 nM

FQRAIMNAM
Kd (HLA-C*12:03; source organism: Escherichia coli MS 119-7): 99 nM
Kd (HLA-B*08:01 [6]): 154 nM
Kd (HLA-B*39:01): 37.7 nM

FTTNIWMKF
Kd (HLA-C*15:02; source organism: dengue virus type 4): ≥ 20000 nM
Kd (HLA-A*01:01 [7]): 5160 nM

GDIKASNIV
IC50 (HLA-B*08:01 [2]; [16]): ≥ 298000 nM

GLLIVKTVL
IC50 (HLA-A*02:01 [4]; [14]): 294 nM
IC50 (HLA-A*24:02): ≥ 105000 nM
IC50 (HLA-B*08:01 [2]; [14]): ≥ 135000 nM

HEYQGKAVL
Kd (HLA-B*40:01; source organism: Bacillus anthracis str. A0488): 5.1 nM

IEHALAHQL
Kd (HLA-B*40:01; source organism: Salmonella enterica subsp. enterica serovar Typhi): 7.7 nM

ITDMRNGFN
Kd (HLA-A*01:01 [8]; source organism: Escherichia coli O139:H28 str. E24377A): ≥ 20000 nM

KTWGQYWQV
Kd (HLA-C*15:02; source organism: Homo sapiens): 49 nM

LEPRVFGWM
Kd (HLA-B*40:01; source organism: Escherichia coli F11): 71.3 nM

LETCHRNAF
Kd (HLA-B*40:01; source organism: Escherichia coli 536): 1030 nM

LLAKSVFNSLY
Kd (HLA-A*01:01 [8]; source organism: Influenza A virus (A/X-31(H3N2))): 93 nM

LPFQNIHPITI
Kd (HLA-B*07:02; source organism: Influenza A virus (A/duck/Bavaria/1/1977(H1N1))): 57.4 nM

NELGVPFHL
Kd (HLA-B*40:01; source organism: Influenza A virus (A/nt/60/1968(H3N2))): 2.1 nM

NPRMFLAM
Kd (HLA-B*07:02; source organism: Influenza A virus (A/Fort Monmouth/1/1947-mouse adapted(H1N1))): 372 nM

RTHEESLRL
Kd (HLA-B*57:01 [9]): 2080 nM
Kd (HLA-B*58:01): 1480 nM
Kd (HLA-C*15:02; [17]): 50 nM

STMRRMALR
Kd (HLA-A*01:01 [8]; source organism: Homo sapiens): ≥ 20000 nM
Kd (HLA-A*29:02): ≥ 20000 nM
Kd (HLA-B*15:42): ≥ 5000 nM
Kd (HLA-B*45:06): ≥ 5000 nM
Kd (HLA-B*83:01): ≥ 5000 nM

TMNSRYYLV
Kd (HLA-A*03:01 [10]): ≥ 20000 nM
Kd (HLA-A*26:01): ≥ 20000 nM
Kd (HLA-A*31:01): 72.5 nM
Kd (HLA-B*15:01 [11]; [17]): ≥ 20000 nM
Kd (HLA-B*15:17): ≥ 20000 nM
Kd (HLA-B*18:01): ≥ 20000 nM
Kd (HLA-B*27:03): ≥ 20000 nM
Kd (HLA-B*46:01): ≥ 20000 nM
Kd (HLA-B*51:01; [17]): ≥ 20000 nM
Kd (HLA-B*57:01 [12]): ≥ 20000 nM

TPAVCGPVI
Kd (HLA-B*07:02; [18]): 23.8 nM
Kd (HLA-B*15:01 [11]; [18]): ≥ 20000 nM
Kd (HLA-B*51:01; [18]): 1860 nM

VLPFDIKYI
Kd (HLA-C*06:02; source organism: Vaccinia virus L-IPV): 3390 nM
Kd (HLA-A*02:01 [13]): 15 nM
Kd (HLA-A*02:02): 135 nM
Kd (HLA-A*02:03): 9.68 nM
Kd (HLA-A*02:06): 506 nM

VTDEGTSSF
Kd (HLA-C*05:01): ≤ 1 nM
Kd (HLA-C*06:02; [19]): 332 nM

YQFTGIKKY
Kd (HLA-C*12:03; source organism: Homo sapiens): ≤ 1 nM

YYFQSGNEI
Kd (HLA-C*12:03; [19]): ≥ 20000 nM
